Source: paper PMC4939079 (Nature structural & molecular biology, 2016)

Molecular target: the molecule itself
Assay: affinity purification with mass spectrometry

B1: Bap1-GFP (natural protein)
chain: MNKGWLELESDPGLFTLLVEDFGVKGVQVEEIYDLQSKCQGPVYGFIFLFKWIEERRSRRKVSTLVDDTSVIDDDIVNNMFFAHQLIPNSCATHALLSVLLNCSNVDLGPTLSRMKDFTKGFSPESKGYAIGNAPELAKAHNSHARPEPRHLPEKQNGLSAVRTMEAFHFVSYVPITGRLFELDGLKVYPIDHGPWGEDEEWTDKARRVIMERIGLATAGEPYHDIRFNLMAVVPDRRIKYETRLHVLKVNRQTVLEALQQLIRVTQPELIQTHKSQESQLPEESKPASSKSPLGLEAGRTPVASECTQTDGAEEVAGSCPQTTTHSPPSKCKLVVKPPGSSLNGVPPNPAPIVQRLPAFLDNHNYAKSPMQEEEDLAAGVGRSRVPVRAPQQYSEDEDDYEDEDEDVQNTNPAIRYKRKGTGKPGSLSNSSDGQLSVLQPNTINVLTEKLQESQKDLSVPLSIKTSSGAGSPAVAVPTHSQPSPTPSNESTDTASEIGSAFNSPLRSPIRSANPTRPSSPVTSHISKVLFGEDDSLLRVDCIRYNRAVRDLGPVISTGLLHLAEDGVLSPLALTEGGKGSSPSTRSSQGSQGSSGLEEKEVVEVTESRDKPGLNRSSEPLSGEKYSPKELLALLKCVEAEIANYEACLKEEVEKRKKFKIDDQRRTHNYDEFICTFISMLAQEGMLANLVEQNISVRRRQGVSIGRLHKQRKPDRRKRSRPYKAKRQ
Q: How did the “stoichiometry N” value turn out when B1 was run?
A: ~2
